# Measured values as given in article PMC4373355.
# T1: Human amylin (1-37) (human)
# T1 chain: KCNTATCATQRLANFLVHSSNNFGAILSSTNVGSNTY
# Columns and labels:
# [1] = molecular target: T1, Human amylin (1-37) (human); assay: cross-linking; settings: remark: other sources report otherwise
# [2] = molecular target: T1, Human amylin (1-37) (human); assay: cross-linking; settings: remark: other sources report otherwise
binder,measurement,setting,value
KCNTATCATQRLANFLVHSSNNFGAILSSTNVGSNTY [Human amylin (1-37)],stoichiometry N,[1],< 6
same,stoichiometry N,[2],6
